In the supplement of paper PMC9112550, “Optimization of the antimicrobial peptide Bac7 by deep mutational scanning” (BMC Biology, 2022):

These sequences were tested on Escherichia coli TOP10 (assay: shrunken log2 fold change of peptide-encoding DNA abundance (4.5 h post-induction vs induction); higher = less antimicrobial activity (less host growth inhibition)). Conditions: time post-induction: 4.5 h; library: site-saturation at positions 5, 18, 19, 20.
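Note: peptides expressed intracellularly from a pBAD plasmid library in pooled LB shake-flask culture, induced with 0.3% L-arabinose, DNA abundance read by NGS, three biological replicates, DESeq2 with apeglm shrinkage.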

Point of comparison: RRIRVRPPRLPRPRPRPIAFPRP, “shrunken log2 fold change” value -0.207. Against it:
- RRIRSRPPRLPRPRPRPCCFPRP — within 0.2 log units, -0.0695
- RRIRQRPPRLPRPRPRPAMSPRP — higher, 0.322
- RRIRDRPPRLPRPRPRPKDLPRP — within 0.2 log units, -0.0191
- RRIRKRPPRLPRPRPRPEYVPRP — higher, -0.00396
- RRIRERPPRLPRPRPRPIGDPRP — lower, -0.942
- RRIRERPPRLPRPRPRPACVPRP — higher, 0.24
- RRIRARPPRLPRPRPRPCSQPRP — within 0.2 log units, -0.172
- RRIRIRPPRLPRPRPRPRVDPRP — higher, 0.061
- RRIRMRPPRLPRPRPRPVKCPRP — within 0.2 log units, -0.0525
- RRIRARPPRLPRPRPRPNFYPRP — higher, 0.0801
- RRIRGRPPRLPRPRPRPHTWPRP — within 0.2 log units, -0.0293
- RRIRARPPRLPRPRPRPCQAPRP — higher, 0.483
- RRIRIRPPRLPRPRPRPTQGPRP — within 0.2 log units, -0.104
- RRIRSRPPRLPRPRPRPEDNPRP — higher, 0.24
- RRIRQRPPRLPRPRPRPAVFPRP — within 0.2 log units, -0.0406
- RRIRWRPPRLPRPRPRPASIPRP — within 0.2 log units, -0.336
- RRIRGRPPRLPRPRPRPLHQPRP — higher, 0.665
- RRIRFRPPRLPRPRPRPMSSPRP — within 0.2 log units, -0.0482
- RRIRQRPPRLPRPRPRPAQGPRP — within 0.2 log units, -0.0366
- RRIRYRPPRLPRPRPRPDAEPRP — within 0.2 log units, -0.0535
- RRIRYRPPRLPRPRPRPRARPRP — higher, 2.17
- RRIRTRPPRLPRPRPRPTMQPRP — higher, 0.0459
- RRIRGRPPRLPRPRPRPARSPRP — higher, 0.686
- RRIRARPPRLPRPRPRPFPRPRP — higher, 0.0695
- RRIRYRPPRLPRPRPRPTKDPRP — lower, -1.04
- RRIRCRPPRLPRPRPRPVNAPRP — within 0.2 log units, -0.0831
- RRIRERPPRLPRPRPRPAFCPRP — within 0.2 log units, -0.21
- RRIRPRPPRLPRPRPRPKADPRP — higher, 0.0968
- RRIRKRPPRLPRPRPRPHYRPRP — higher, 0.0224
- RRIRIRPPRLPRPRPRPKQPPRP — higher, 0.102
- RRIRCRPPRLPRPRPRPGALPRP — higher, 0.264
- RRIRFRPPRLPRPRPRPPEMPRP — higher, 0.0471
- RRIRYRPPRLPRPRPRPCCRPRP — lower, -0.732
- RRIRYRPPRLPRPRPRPNMEPRP — lower, -0.618
- RRIRMRPPRLPRPRPRPGQAPRP — higher, 0.34
- RRIRDRPPRLPRPRPRPGPRPRP — higher, 0.787
- RRIRYRPPRLPRPRPRPYNEPRP — lower, -1.3
- RRIRMRPPRLPRPRPRPPLQPRP — higher, 0.661
- RRIRCRPPRLPRPRPRPWLRPRP — within 0.2 log units, -0.0383
- RRIRLRPPRLPRPRPRPVQGPRP — within 0.2 log units, -0.01
- RRIRPRPPRLPRPRPRPVMSPRP — higher, 0.0198
- RRIRGRPPRLPRPRPRPYSCPRP — higher, 0.131
- RRIRERPPRLPRPRPRPLRYPRP — within 0.2 log units, -0.0652
- RRIRERPPRLPRPRPRPQVEPRP — higher, 0.0218
- RRIRFRPPRLPRPRPRPWFGPRP — within 0.2 log units, -0.191
- RRIRGRPPRLPRPRPRPEKCPRP — higher, 0.599
- RRIRQRPPRLPRPRPRPMMDPRP — within 0.2 log units, -0.137
- RRIRIRPPRLPRPRPRPEFFPRP — higher, 0.179
- RRIRWRPPRLPRPRPRPVSDPRP — higher, 0.191
- RRIRHRPPRLPRPRPRPATPPRP — higher, 0.299
- RRIRCRPPRLPRPRPRPGSRPRP — higher, 0.235
- RRIRYRPPRLPRPRPRPGNFPRP — within 0.2 log units, -0.307
- RRIRNRPPRLPRPRPRPELHPRP — higher, 0.102
- RRIRTRPPRLPRPRPRPGYKPRP — within 0.2 log units, -0.275
- RRIRPRPPRLPRPRPRPMRRPRP — higher, 0.537
- RRIRTRPPRLPRPRPRPCYHPRP — lower, -0.637
- RRIRSRPPRLPRPRPRPRNRPRP — within 0.2 log units, -0.198
- RRIRNRPPRLPRPRPRPGQWPRP — higher, 0.244
- RRIRQRPPRLPRPRPRPLQVPRP — within 0.2 log units, -0.0738
- RRIRQRPPRLPRPRPRPWPHPRP — higher, 0.172
- RRIRYRPPRLPRPRPRPGFHPRP — lower, -0.564
- RRIRCRPPRLPRPRPRPMPQPRP — higher, 0.202
- RRIRDRPPRLPRPRPRPCVYPRP — within 0.2 log units, -0.0478
- RRIRFRPPRLPRPRPRPRCEPRP — within 0.2 log units, -0.0311
- RRIRGRPPRLPRPRPRPKMKPRP — higher, 0.723
- RRIRKRPPRLPRPRPRPAVGPRP — higher, 0.472
- RRIRKRPPRLPRPRPRPMEKPRP — within 0.2 log units, -0.0153
- RRIRIRPPRLPRPRPRPNPSPRP — higher, 0.0641
- RRIRGRPPRLPRPRPRPLQVPRP — higher, 0.458
- RRIRFRPPRLPRPRPRPASSPRP — within 0.2 log units, -0.204
- RRIRCRPPRLPRPRPRPVECPRP — within 0.2 log units, -0.142
- RRIRFRPPRLPRPRPRPRVVPRP — higher, 0.298
- RRIRYRPPRLPRPRPRPHDLPRP — higher, -0.00151
- RRIRKRPPRLPRPRPRPDAWPRP — within 0.2 log units, -0.0106
- RRIRGRPPRLPRPRPRPKDIPRP — within 0.2 log units, -0.0187
- RRIRCRPPRLPRPRPRPGTSPRP — higher, 0.0279
- RRIRRRPPRLPRPRPRPISKPRP — within 0.2 log units, -0.198
- RRIRLRPPRLPRPRPRPKEGPRP — within 0.2 log units, -0.0145
- RRIRVRPPRLPRPRPRPSIRPRP — within 0.2 log units, -0.285
- RRIRCRPPRLPRPRPRPFYHPRP — lower, -0.668
- RRIRPRPPRLPRPRPRPQRMPRP — higher, 0.209
- RRIRSRPPRLPRPRPRPMRNPRP — higher, 0.628
- RRIRYRPPRLPRPRPRPAHEPRP — higher, 0.241
- RRIRNRPPRLPRPRPRPGKHPRP — within 0.2 log units, -0.0999
- RRIRERPPRLPRPRPRPKWPPRP — higher, 0.016
- RRIRPRPPRLPRPRPRPKGGPRP — higher, 1.33
- RRIRFRPPRLPRPRPRPRFEPRP — higher, 0.162
- RRIRERPPRLPRPRPRPNTQPRP — within 0.2 log units, -0.187
- RRIRKRPPRLPRPRPRPSLWPRP — higher, 0.187
- RRIRIRPPRLPRPRPRPSRIPRP — within 0.2 log units, -0.0712
- RRIRYRPPRLPRPRPRPWKYPRP — within 0.2 log units, -0.0732
- RRIRMRPPRLPRPRPRPNQSPRP — higher, 0.176
- RRIRLRPPRLPRPRPRPSYYPRP — lower, -0.963
- RRIRFRPPRLPRPRPRPTQGPRP — higher, 0.215
- RRIRQRPPRLPRPRPRPLSQPRP — within 0.2 log units, -0.0534
- RRIRQRPPRLPRPRPRPKPGPRP — higher, 0.285
- RRIRRRPPRLPRPRPRPWNWPRP — higher, 2.98
- RRIRRRPPRLPRPRPRPIIHPRP — lower, -0.584
- RRIRWRPPRLPRPRPRPFRLPRP — within 0.2 log units, -0.394
- RRIRNRPPRLPRPRPRPTQTPRP — within 0.2 log units, -0.0444
- RRIRDRPPRLPRPRPRPPMTPRP — higher, 0.425
- RRIRERPPRLPRPRPRPVWKPRP — higher, 0.00515
- RRIRVRPPRLPRPRPRPMMDPRP — within 0.2 log units, -0.154
- RRIRFRPPRLPRPRPRPQIEPRP — within 0.2 log units, -0.24
- RRIRIRPPRLPRPRPRPETVPRP — within 0.2 log units, -0.344
- RRIRVRPPRLPRPRPRPHYGPRP — within 0.2 log units, -0.0301
- RRIRCRPPRLPRPRPRPSSRPRP — lower, -0.459
- RRIRGRPPRLPRPRPRPIWQPRP — higher, 0.349
- RRIRMRPPRLPRPRPRPCMEPRP — higher, 0.112
- RRIRCRPPRLPRPRPRPTLGPRP — higher, 0.168
- RRIRIRPPRLPRPRPRPDYIPRP — within 0.2 log units, -0.183
- RRIRYRPPRLPRPRPRPERKPRP — within 0.2 log units, -0.109
- RRIRPRPPRLPRPRPRPEDFPRP — within 0.2 log units, -0.0193
- RRIRTRPPRLPRPRPRPLVDPRP — within 0.2 log units, -0.143
- RRIRNRPPRLPRPRPRPTKQPRP — within 0.2 log units, -0.102
- RRIRMRPPRLPRPRPRPMWFPRP — higher, 0.233
- RRIRRRPPRLPRPRPRPISEPRP — higher, 0.00118
- RRIRNRPPRLPRPRPRPVGIPRP — within 0.2 log units, -0.2
- RRIRQRPPRLPRPRPRPLNRPRP — within 0.2 log units, -0.191
- RRIRERPPRLPRPRPRPGGAPRP — higher, 0.276
- RRIRPRPPRLPRPRPRPMMHPRP — within 0.2 log units, -0.0262
- RRIRMRPPRLPRPRPRPHFNPRP — within 0.2 log units, -0.0825
- RRIRMRPPRLPRPRPRPQEQPRP — higher, 0.186
- RRIRSRPPRLPRPRPRPVVCPRP — within 0.2 log units, -0.0186
